Data reported in the supplement of paper PMC7125110.
± gives the standard error. Variants at the floor of the assay were thinned out.

B1: glmS ribozyme (parent)
chain: AUAAAAGCGCCAGAACUACAGAAAUGUAGUUGACGAGGAGGAGGUUUAUCGAAUUUUCGGCGGAUGCCUCCAAA

Experiments:
Conditions in all cases: with glucosamine-6-phosphate
glucosamine-6-phosphate [1] = variants of: B1; experiment: self-cleavage kobs at 160 uM GlcN6P; higher = faster cleavage; RNA array
How it was run: (§1)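 Barcoded ribozyme variants were transcribed in situ on sequenced MiSeq chips by E. coli RNA polymerase. At 37 °C, a hybridised Cy3 probe tracked them while glucosamine-6-phosphate (40 μM to 10 mM) in HEPES/KCl/Mg(OAc)2 buffer flowed in and tiles were imaged over ~14 h. Per-tile medians of signals normalised to baseline and to non-cleaving reference variants were fit to one- or two-exponential decays, giving kobs. kcat and KM came from weighted Michaelis–Menten fits across concentrations.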

glucosamine-6-phosphate [2] = variants of: B1; experiment: self-cleavage kobs at 640 uM GlcN6P; higher = faster cleavage; RNA array
How it was run: as §1

glucosamine-6-phosphate [3] = variants of: B1; experiment: self-cleavage kobs at 10000 uM GlcN6P; higher = faster cleavage; RNA array
How it was run: as §1

glucosamine-6-phosphate [4] = variants of: B1; experiment: self-cleavage kobs at 2500 uM GlcN6P; higher = faster cleavage; RNA array
How it was run: as §1

Variant | self-cleavage kobs at 160 uM GlcN6P (glucosamine-6-phosphate [1]) [s⁻¹] | self-cleavage kobs at 640 uM GlcN6P (glucosamine-6-phosphate [2]) [s⁻¹] | self-cleavage kobs at 10000 uM GlcN6P (glucosamine-6-phosphate [3]) [s⁻¹] | self-cleavage kobs at 2500 uM GlcN6P (glucosamine-6-phosphate [4]) [s⁻¹]
C8A A48C C68G | < 1e-05 | < 1e-05 |  | 
G13A G41U G43C | < 1e-05 | < 1e-05 |  | 
G9U G32C | < 1e-05 | < 1e-05 | < 1e-05 | 
G35C C67G | < 1e-05 | < 1e-05 |  | < 1e-05
A12U G51A U55C | < 1e-05 |  |  | 
A14U C50U G51U | < 1e-05 | < 1e-05 | < 1e-05 | < 1e-05
A6C U57C | < 1e-05 | < 1e-05 | < 1e-05 | < 1e-05
C10U U65G | < 1e-05 |  |  | 
G7U G9A | < 1e-05 | < 1e-05 |  | < 1e-05
U30A U54A C67U C68A | 3.56e-05 ± 1.7e-05 |  |  | 4.46e-05 ± 2.1e-05
A12G G38U U57C | < 1e-05 | < 1e-05 | < 1e-05 | 
G29U C34G G38U G44U | < 1e-05 | < 1e-05 |  | 
G13U G35C A64U | < 1e-05 | < 1e-05 |  | < 1e-05
C16U C34G | < 1e-05 |  | < 1e-05 | 
G32C G38U G43A C67A | < 1e-05 |  |  | < 1e-05
G13A U30A U31A A42C U46G | < 1e-05 |  |  | < 1e-05
C8A G9A G37U A39G | < 1e-05 |  |  | 
G60A C68G | 8.43e-05 ± 3.9e-05 | 7.21e-05 ± 1.6e-05 |  | 6.95e-05 ± 2.5e-05
G7U G62A C67A | < 1e-05 | < 1e-05 |  | < 1e-05
C8U A15U U31G | < 1e-05 | < 1e-05 |  | 
C10A G35A A39G | < 1e-05 |  |  | < 1e-05
G37A C50A C61G | < 1e-05 | < 1e-05 |  | 
A39G C58U G63U | < 1e-05 | < 1e-05 |  | 
G7C A12G A33U G51U | < 1e-05 |  |  | 
A12G G32C C71A | < 1e-05 | < 1e-05 |  | 

Variant | self-cleavage kobs at 160 uM GlcN6P (glucosamine-6-phosphate [1]) [s⁻¹] | self-cleavage kobs at 640 uM GlcN6P (glucosamine-6-phosphate [2]) [s⁻¹] | self-cleavage kobs at 10000 uM GlcN6P (glucosamine-6-phosphate [3]) [s⁻¹] | self-cleavage kobs at 2500 uM GlcN6P (glucosamine-6-phosphate [4]) [s⁻¹]
A14C G29A U56C U57G | < 1e-05 | < 1e-05 |  | 
A12G U46G G59U | < 1e-05 | < 1e-05 |  | < 1e-05
A12C G51C U57C A64C | < 1e-05 | < 1e-05 |  | < 1e-05
G9A A52U C70U | < 1e-05 |  |  | 
G41A C50G | < 1e-05 | < 1e-05 | < 1e-05 | < 1e-05
G9U G32C G35C A64G | < 1e-05 | < 1e-05 |  | < 1e-05
U55C C58U | < 1e-05 |  | 6.55e-05 ± 8.7e-06 | 
A12G A36C U65A | < 1e-05 | < 1e-05 | < 1e-05 | < 1e-05
G26A C70A | 0.000106 ± 2.6e-05 |  |  | 
G35U C71U | < 1e-05 | < 1e-05 | < 1e-05 | < 1e-05
A6G A15U A52U | < 1e-05 | < 1e-05 |  | < 1e-05
C10U G32C A36G A39U | < 1e-05 | < 1e-05 |  | < 1e-05
G43A G44A | < 1e-05 | < 1e-05 | < 1e-05 | < 1e-05
G41U U69G | < 1e-05 | < 1e-05 | < 1e-05 | < 1e-05
G7A C11A A52U C70A | < 1e-05 | < 1e-05 |  | < 1e-05
C8A G13A G37U C67U C68U | 8.8e-05 ± 3.5e-05 | 0.000297 ± 8.5e-05 |  | 
A39C G51C U55A | < 1e-05 |  |  | < 1e-05
G37C G41A C50G G60A C67G C68A | 9.12e-05 ± 1.6e-05 | 8.46e-05 ± 1.9e-05 |  | 9.58e-05 ± 1.3e-05
G29A G35C | < 1e-05 | < 1e-05 | < 1e-05 | < 1e-05
C8G G59A C71G | < 1e-05 |  |  | 
C11G A12C A52C G59U G66A C67G | < 1e-05 | < 1e-05 |  | < 1e-05
A48G A52C U55C | < 1e-05 | < 1e-05 |  | 
C10U A53C | < 1e-05 | < 1e-05 |  | 
C10U C16A U65A | < 1e-05 | < 1e-05 | < 1e-05 | < 1e-05
